For three substances, Kd results are on record in patent US20100056457.

Series [1] concerns gg1 six-finger protein (synthetic). The settings on record: CITED ref 40 (Graslund 2005); cited from earlier work.
Series [2] has as its system pE2S six-finger protein (synthetic (Zif268/Sp1C framework)). As to the kind of experiment: footprint. The following applies: DNase I footprint, 10 uM Zn, 4 C, mean of three; protected exactly the 18 bp site.
Series [3] shares this test system. In words: EMSA. In general terms: A gel shift assay detects complexes by their altered migration in electrophoresis.

For orientation: Kd means the constant that tells how readily two partners part at equilibrium. “GTCAAGGCAAGGCTGGCC (double strand) [gg1 target site]”: the Kd in series [1] was 0.7 nM.
On to “ERBB-2 promoter fragment, 267 bp (-209 to +3)”, for which the Kd in series [2] came to 14 nM.
In turn, “CGGGGGGCTCCCCTGGTT (double strand) [E2S target site]” displayed a Kd in series [3] of 3.25 nM.
